First the molecules themselves.
T1: human IL-23 (human, UniProt Q9NPF7 20-189; P29460 23-328)
T1 construct: Heterodimer p19/p40; in the ELISA captured on the plate through a biotinylated anti-p40 antibody (clone C8.6); also called cytokine IL-23 (eBioscience, 34-8239-85)
T1 sequence (looked up) 1: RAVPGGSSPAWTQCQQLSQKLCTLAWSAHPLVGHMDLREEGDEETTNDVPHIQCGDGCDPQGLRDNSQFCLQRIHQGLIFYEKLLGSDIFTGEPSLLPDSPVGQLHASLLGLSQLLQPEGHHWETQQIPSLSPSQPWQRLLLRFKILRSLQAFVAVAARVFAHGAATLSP
T1 sequence (looked up) 2: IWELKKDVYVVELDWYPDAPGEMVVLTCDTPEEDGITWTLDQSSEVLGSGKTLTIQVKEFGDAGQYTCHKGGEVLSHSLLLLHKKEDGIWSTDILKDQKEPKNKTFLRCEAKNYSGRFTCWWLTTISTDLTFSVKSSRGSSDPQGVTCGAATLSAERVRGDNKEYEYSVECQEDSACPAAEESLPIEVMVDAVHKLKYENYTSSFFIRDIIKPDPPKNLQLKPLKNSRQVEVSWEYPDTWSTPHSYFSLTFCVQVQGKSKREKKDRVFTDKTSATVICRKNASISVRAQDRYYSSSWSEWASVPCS

T2: human Flt3L (human, UniProt P49771 27-160, limits assumed)
T2 construct: Biotinylated form used in biopanning and phage ELISA; unlabelled in ITC and crystallography; also called hFlt3L; Flt3 ligand
T2 sequence (looked up): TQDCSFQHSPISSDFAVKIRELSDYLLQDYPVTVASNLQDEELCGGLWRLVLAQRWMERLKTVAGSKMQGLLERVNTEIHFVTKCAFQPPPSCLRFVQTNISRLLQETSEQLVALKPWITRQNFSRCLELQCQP

B1: SEQ ID NO 104 (designed binder)
chain: GSIEQIQKNIAYIQERIATIQKKIYRMTGGSGGSGGGGSGGSGGGSIEQIQKQIAAIQKQIAAIQKQIYAMTGSGGGGSGGSGGGGSGGSIEQIQKQIGAIAEQILAIVKQIRAMTP
notes: Alphabody, AC11b library clone
B2: SEQ ID NO 102 (designed binder)
chain: B1 chain with N9I, Y12S, R16P, T19R, K23G, V109F
notes: as for B1
B3: SEQ ID NO 103 (designed binder)
chain: GSIEQIQKPIASIQELIAMIQKAIYWMTGGSGGSGGGGSGGSGGGSIEQIQKQIAAIQKQIAAIQKQIYAMTGSGGGGSGGSGGGGSGGSIEQIQKQIVAISEQIMAIIKQIGAMTP
notes: as for B1
B4: SEQ ID NO 99 (designed binder)
chain: B1 chain with N9P, Y12E, R16I, T19R, R26I, G99S, A102G, L106F, R113Y
notes: as for B1
B5: SEQ ID NO 107 (designed binder)
chain: B1 chain with N9P, Y12R, R16T, T19I, K23T, G99T, A102R, L106R, V109W, R113P
notes: as for B1
B6: SEQ ID NO 95 (designed binder)
chain: B1 chain with N9P, Y12L, K23L, R26G, G99S, V109S, R113W
notes: as for B1
B7: SEQ ID NO 122 (designed binder)
chain: B1 chain with N9R, Y12P, R16S, T19G, K23R, G99R, A102T, L106G, V109L, R113F
notes: as for B1
B8: SEQ ID NO 114 (designed binder)
chain: B1 chain with N9R, Y12R, R16P, T19G, K23R, R26M, G99R, L106V, V109A, R113V
notes: as for B1
B9: SEQ ID NO 96 (designed binder)
chain: B3 chain with P9W, S12C, L16C, M19G, A23E, W26I, V99R, M106Y, G113S
notes: as for B1
B10: SEQ ID NO 105 (designed binder)
chain: GSIEQIQKRIARIQEKIAWIQKPIYQMTGGSGGSGGGGSGGSGGGSIEQIQKQIAAIQKQIAAIQKQIYAMTGSGGGGSGGSGGGGSGGSIEQIQKQIRAIREQIGAILKQIKAMTP
notes: as for B1
B11: SEQ ID NO 64 (designed binder)
chain: GSIEQIQKVIARIQEPIAVIQKMIYAMTGGSGGSGGGSIEQIQKQIAAIQKQIAAIQKQIYAMTGSGGGGSGGSIEQIQKQISAIRSQILAIIRQIFAMTP
notes: Alphabody, AC12 library clone
B12: SEQ ID NO 73 (designed binder)
chain: GSIEQIQKFIASIQECIASIQKVIYAMTGGSGGSGGGSIEQIQKQIAAIQKQIAAIQKQIYAMTGSGGGGSGGSIEQIQKQIGAIAAQIIAIVEQIVAMTP
notes: Alphabody, AC12 library clone
B13: SEQ ID NO 65 (designed binder)
chain: B12 chain with F9T, S12K, C16R, S19W, G83K, A86S, A87Y, V93M, E94R, V97L
notes: Alphabody, AC12 library clone
B14: SEQ ID NO 67 (designed binder)
chain: B12 chain with F9V, S12W, C16S, V23R, G83Q, A87N, I90T, E94R, V97I
notes: Alphabody, AC12 library clone
B15: SEQ ID NO 71 (designed binder)
chain: B11 chain with V9P, R12A, P16K, V19R, M23R, S83M, R86N, S87R, I93L, F97L
notes: Alphabody, AC12 library clone
B16: SEQ ID NO 70 (designed binder)
chain: GSIEQIQKCIAFIQERIAGIQKRIYAMTGGSGGSGGGSIEQIQKQIAAIQKQIAAIQKQIYAMTGSGGGGSGGSIEQIQKQIFAIGKQIFAIVKQILAMTP
notes: Alphabody, AC12 library clone
B17: SEQ ID NO 77 (designed binder)
chain: GSIEQIQKGIAAIQEWIATIQKRIYAMTGGSGGSGGGSIEQIQKQIAAIQKQIAAIQKQIYAMTGSGGGGSGGSIEQIQKQIRAITIQIIAIIQQIWAMTP
notes: Alphabody, AC12 library clone
B18: SEQ ID NO 74 (designed binder)
chain: B12 chain with F9K, S12Y, C16M, S19L, V23G, G83S, I90S, V93I, E94K, V97M
notes: Alphabody, AC12 library clone
B19: hFlt3L_cl4 (designed binder)
chain: HMSIEEIQKQIAAIQKQIAAIQKQIYAMTGGSGGGSGGGSGGGSGMSIEEIQKQIAAIQKQIAAIQKQIYAMTGGSGGGSGGGSGGGSGMSIEEIQDQILNIQWQIHDIQQQIIVMTPGG

Numbering of substitutions follows the chain as printed.

One assay concerns the target T1, human IL-23. Briefly: phage ELISA; IL-23 captured by anti-p40 antibody. The procedure:
The set-up of the ELISA was as follows. Neutravidin was immobilized on the plate at a concentration of 0.010 mg/ml in PBS (0.100 ml) for 1 hour at room temperature (RT). Plates were washed 5 times with PBS containing 0.05% Tween 20 (PBST) for 5 min. Subsequently, 0.1 ml Biotinylated anti-p40 antibody (100 nM) was added to the plates in PBS containing 0.1% BSA and incubated overnight at 4° C. or at RT for 1 hour. After incubation, plates were washed 5 times with PBST and blocked with PBS containing 0.1% BSA and 0.5% gelatin (0.120 ml/well) for at least 1 hour at room temperature or overnight at 4° C. After washing 5 times with PBST, 100 nM IL-23 (target) was added to 0.1 ml PBS, 0.1% BSA. For individual negative controls no IL-23 was added (background).
In the meantime, the bacteria plates were centrifuged at 1700 rpm for 10 min to pellet the bacteria. Plates with the immobilized IL-23 were washed 5 times with PBST and 0.050 ml of PBS with 0.2% BSA were added to the plate together with 0.050 ml of the bacterial culture supernatant containing phage. Plates were incubated for 1 to 1.5 hours at room temperature while shaking. Shaking of the plates enhanced the ELISA signals.
B1: the binding result is “binds”. Still for that read-out and setting: as for B2, the entry is “binds”. The same measure, in the same setting: as for B3, the entry is “binds”; as for B4, “binds”. The same measure, in the same setting: as for B5, the entry is “binds”; as for B6, “binds”; as for B7, “binds”. For the molecule B8, the binding result was “binds”. Still for that read-out and setting: as for B9, the entry is “binds”.

In the case of B10, the binding result is on record as “binds”. On the same count and under the same terms, as for B11, the entry is “binds”; as for B12, “binds”. Still for that read-out and setting: as for B13, the entry is “binds”. Same read-out and setting: as for B14, the entry is “binds”; as for B15, “binds”; as for B16, “binds”. Take B17: the binding result is given as “binds”. With B18, the binding result is given as “binds”.

The target in a further assay is T2, human Flt3L. Briefly: isothermal titration calorimetry, 37 C, triplicate. The procedure: (§1) The binding of Alphabody hFlt3L_cl4 to the target hFlt3L was tested by isothermal titration calorimetry (ITC) in order to determine its dissociation constant (KD), thermodynamic parameters (ΔH, ΔS) and binding stoichiometry. Prior to the measurements, Alphabody and target samples were dialyzed against 20 mM HEPES buffer containing 150 mM NaCl, pH 7.4. The ITC measurements were performed in triplicate at a temperature of 37° C. In each experiment, hFlt3L, which exists as a stable dimer in solution, was loaded into the cell (at concentrations 3.0 μM, 6.5 μM and 7.0 μM of hFlt3L dimer, respectively) and hFlt3L_cl4 was loaded in the syringe (at concentrations of 41.35 μM, 89.62 μM and 89.62 μM, respectively). […] This implies that, since the concentrations of hFlt3L were given for the dimeric complex (hFlt3L)₂, only one hFlt3L_cl4 Alphabody binds to one hFlt3L dimer.
In the case of B19, the Ka worked out at 4.95e+06 M⁻¹, the ΔG is -9.5 kcal/mol, the ΔH is -16.6 kcal/mol and the ΔS was -22.9 cal/(mol·K).

The next assay concerns the target T2, human Flt3L. Description: isothermal titration calorimetry, 37 C, triplicate; hFlt3L dimer in the cell, Alphabody in the syringe. The procedure: as §1
Turning to B19, binding was characterised by a dissociation constant (Kd) of 202 nM.

Values taken from US20140057830A1 (COMPLIX, published 2014).
